Biological target: human FGFR1c/KLB receptor complex on cells (human) (UniProt P11362)
Test: cell-based or functional assay

Chain of human FGFR1c/KLB receptor complex on cells (human) (P11362 other isoform, or with tags, fused parts or gaps limits assumed, chain 1 of 2): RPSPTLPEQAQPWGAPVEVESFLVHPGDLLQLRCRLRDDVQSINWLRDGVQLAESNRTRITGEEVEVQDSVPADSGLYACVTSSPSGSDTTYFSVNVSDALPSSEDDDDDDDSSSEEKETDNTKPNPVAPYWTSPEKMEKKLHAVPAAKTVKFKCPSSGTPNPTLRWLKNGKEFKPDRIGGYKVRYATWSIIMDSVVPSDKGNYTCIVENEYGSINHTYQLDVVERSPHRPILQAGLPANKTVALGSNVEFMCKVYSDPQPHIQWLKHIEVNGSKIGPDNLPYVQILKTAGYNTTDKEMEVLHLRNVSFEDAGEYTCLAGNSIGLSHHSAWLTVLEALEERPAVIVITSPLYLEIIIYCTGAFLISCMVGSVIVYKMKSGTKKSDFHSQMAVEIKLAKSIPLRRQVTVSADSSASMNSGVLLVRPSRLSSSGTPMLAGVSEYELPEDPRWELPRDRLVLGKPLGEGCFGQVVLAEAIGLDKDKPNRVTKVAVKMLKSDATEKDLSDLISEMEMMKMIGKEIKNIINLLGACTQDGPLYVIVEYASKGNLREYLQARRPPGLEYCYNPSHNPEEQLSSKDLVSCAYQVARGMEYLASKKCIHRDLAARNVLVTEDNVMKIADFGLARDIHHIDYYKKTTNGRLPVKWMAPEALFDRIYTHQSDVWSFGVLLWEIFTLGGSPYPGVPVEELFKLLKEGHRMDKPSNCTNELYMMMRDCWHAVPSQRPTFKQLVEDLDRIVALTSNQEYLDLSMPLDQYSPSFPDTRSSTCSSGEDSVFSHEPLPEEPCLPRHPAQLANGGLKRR
Chain of human FGFR1c/KLB receptor complex on cells (human) (chain, as listed by the source limits assumed, chain 2 of 2): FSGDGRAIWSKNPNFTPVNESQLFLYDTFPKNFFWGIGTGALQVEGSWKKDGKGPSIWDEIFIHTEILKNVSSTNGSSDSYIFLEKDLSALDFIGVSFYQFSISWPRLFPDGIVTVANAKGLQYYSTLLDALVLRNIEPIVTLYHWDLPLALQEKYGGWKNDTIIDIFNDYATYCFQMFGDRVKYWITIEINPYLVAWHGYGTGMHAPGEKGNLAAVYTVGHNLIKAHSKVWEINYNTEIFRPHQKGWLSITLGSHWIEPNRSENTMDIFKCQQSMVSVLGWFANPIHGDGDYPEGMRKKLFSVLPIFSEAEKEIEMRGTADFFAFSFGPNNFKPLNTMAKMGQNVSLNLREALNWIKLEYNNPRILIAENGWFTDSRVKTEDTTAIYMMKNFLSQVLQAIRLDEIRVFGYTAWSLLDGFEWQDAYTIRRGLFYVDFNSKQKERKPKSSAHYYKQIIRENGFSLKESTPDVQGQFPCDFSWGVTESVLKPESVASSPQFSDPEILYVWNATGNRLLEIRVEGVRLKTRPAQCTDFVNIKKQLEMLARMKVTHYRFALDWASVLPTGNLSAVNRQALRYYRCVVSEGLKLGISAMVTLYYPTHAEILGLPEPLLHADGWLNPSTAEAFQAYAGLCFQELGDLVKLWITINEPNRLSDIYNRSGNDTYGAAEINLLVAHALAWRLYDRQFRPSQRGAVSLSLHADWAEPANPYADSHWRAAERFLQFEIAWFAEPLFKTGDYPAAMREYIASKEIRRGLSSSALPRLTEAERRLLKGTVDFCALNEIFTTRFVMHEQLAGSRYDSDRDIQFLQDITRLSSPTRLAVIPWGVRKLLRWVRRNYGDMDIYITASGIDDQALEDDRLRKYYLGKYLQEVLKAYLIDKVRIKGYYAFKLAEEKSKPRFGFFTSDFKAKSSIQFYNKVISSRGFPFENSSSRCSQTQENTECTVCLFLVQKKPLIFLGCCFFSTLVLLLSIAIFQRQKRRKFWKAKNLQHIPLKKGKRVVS

% Act: 100%
EC50: 2.9 nM
Percent Activity %: 100%
Substance: REGN1438 (6His-FGF21) (from UniProt Q9NSA1 29-209) (ligand)
